Assay results published in patent publication US20050203007A1 (REGENTS OF THE UNIVERSITY OF MICHIGAN, published 2005).

Columns and labels:
[1] = target: T1, secreted, soluble Kex2 (Saccharomyces cerevisiae, UniProt P13134 114-613, limits assumed); assay: estimated from koff
T1 construct: Secreted, soluble construct; also called kexin
T1 sequence (looked up): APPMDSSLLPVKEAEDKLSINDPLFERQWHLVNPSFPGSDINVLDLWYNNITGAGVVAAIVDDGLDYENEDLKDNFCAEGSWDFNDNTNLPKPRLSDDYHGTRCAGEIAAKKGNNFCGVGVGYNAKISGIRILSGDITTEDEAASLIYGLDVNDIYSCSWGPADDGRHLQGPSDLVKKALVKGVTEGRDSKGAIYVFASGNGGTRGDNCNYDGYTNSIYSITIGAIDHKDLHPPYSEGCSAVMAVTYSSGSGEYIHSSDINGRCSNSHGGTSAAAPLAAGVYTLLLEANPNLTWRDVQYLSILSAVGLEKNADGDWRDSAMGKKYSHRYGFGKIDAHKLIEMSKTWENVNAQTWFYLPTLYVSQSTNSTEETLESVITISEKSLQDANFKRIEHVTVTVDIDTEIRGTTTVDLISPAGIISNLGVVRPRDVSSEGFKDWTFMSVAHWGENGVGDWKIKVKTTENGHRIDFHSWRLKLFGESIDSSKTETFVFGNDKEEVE
Experimental: (§1) In some aspects of the present invention, biological application of the eglin c variants of the present invention as inhibitors of processing in vivo depends upon the rate of binding to target enzymes, where it is critical. Therefore, the rate of action of eglin variants with Kex2 and furin was examined by incubating 5×10⁻¹⁰ M enzyme with inhibitor at molar ratios of inhibitor to enzyme ranging from 10 to 80. […] The relationship between kobs and inhibitor concentration was linear. The values of kₒₙ were determined from the slope of such curves, and dissociation rate constants (koff) were calculated (koff=kₒₙ/Kₐ). For R4R1-eglin, koff was calculated to be 2×10⁻⁴s⁻¹ for Kex2, and 3×10⁻⁴s⁻¹ for furin. […] Similarly, the t_{1/2} of the complex of M4R1-eglin with Kex2 was estimated to be 3 h. For complex of R4K1-eglin with furin, koff was calculated to be 2×10⁻⁴s⁻¹ implying that the koff and t_{1/2} for this complex are similar to those for the complex of R4R1-eglin with furin.

[2] = target: T2, secreted, soluble furin (human, UniProt P09958 108-715, limits assumed); assay: estimated from koff
T2 construct: Secreted, soluble construct; also called human furin
T2 sequence (P09958 108-715 limits assumed): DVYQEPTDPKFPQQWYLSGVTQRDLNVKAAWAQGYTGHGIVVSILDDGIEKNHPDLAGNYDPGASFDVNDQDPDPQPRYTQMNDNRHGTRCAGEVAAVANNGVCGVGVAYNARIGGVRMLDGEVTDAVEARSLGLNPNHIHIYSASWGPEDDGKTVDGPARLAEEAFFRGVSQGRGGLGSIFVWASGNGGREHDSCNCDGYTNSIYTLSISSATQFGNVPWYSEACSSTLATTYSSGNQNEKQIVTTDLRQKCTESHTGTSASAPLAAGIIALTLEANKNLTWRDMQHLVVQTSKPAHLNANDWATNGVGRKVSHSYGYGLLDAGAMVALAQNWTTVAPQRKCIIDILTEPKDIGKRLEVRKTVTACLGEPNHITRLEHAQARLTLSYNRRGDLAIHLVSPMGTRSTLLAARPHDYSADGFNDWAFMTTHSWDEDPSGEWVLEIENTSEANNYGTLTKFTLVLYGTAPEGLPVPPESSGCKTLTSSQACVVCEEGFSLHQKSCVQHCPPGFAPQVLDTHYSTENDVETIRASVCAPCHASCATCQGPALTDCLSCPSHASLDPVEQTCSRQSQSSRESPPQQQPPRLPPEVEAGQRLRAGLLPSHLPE
Experimental: as §1

[3] = target: T1, secreted, soluble Kex2; assay: enzyme inhibition, purified variant
Experimental: (§2) Affinities of eglin variants with secreted, soluble Kex2 (hereafter “Kex2”; Brenner, C. and Fuller, R. S. (1992) Proc. Natl. Acad. Sci. USA 89: 922-926) and secreted, soluble furin (hereafter, “furin”; Bravo, D. A. et al (1994) J. Biol. Chem. 269: 25830-25837; and Komiyama & Fuller (2000) Biochemistry 39: 15156-15165) were measured by incubating variants with the enzymes (˜0.5 to 2.0 nM) for 45 min to 1 h at 21° C. in one of two enzyme assay buffers. For Kex2, the buffer was 200 mM Bistris (pH 7.27) containing 1 mM CaCl₂ and 0.1% Triton X-100; and for furin, the buffer was 20 mM NaMES (pH 7.0) containing 1 mM CaCl₂ and 0.1% Triton X-100 for furin. 100 to 200 μL aliquots of reaction mixtures were transferred into triplicate wells of opaque 96 well plates (Costar), and residual enzyme activity was measured with an fmax fluorescence micro plate reader (Molecular Devices) by monitoring hydrolysis of a fluorogenic substrate Boc-Arg-Val-Arg-Arg-MCA. Data were graphically analyzed (KaleidaGraph) with an equation developed by Green and Work (1953). Site-directed mutagenesis at P2 and P6 of eglin c generated temporary inhibitors (Table 3) and exhausted possibility to improve affinity further with this approach.

[4] = target: T2, secreted, soluble furin; assay: enzyme inhibition, purified variant
Experimental: as §2

[5] = target: T2, secreted, soluble furin; assay: calculated from kon (progress curves) and Ka
Experimental: as §1

[6] = target: T2, secreted, soluble furin; assay: affinity resin, eglin immobilized on Reacti-Gel 6X
Experimental: Resins were synthesized by immobilizing purified M4R1-eglin and R4R1-eglin onto Reacti-Gel 6X (Pierce) using the manufacturer's protocol.
The resins were then used to test binding and elution of furin from these resins. […] Enzyme was eluted with 20 mM NaMES (pH 6.0) with approximately 90% yield. Furin binding capacity to the R4R1-eglin Resin was 10-fold higher relative to the M4R1-eglin Resin, but furin was not eluted by dropping pH. Instead, furin bound to the R4R1-eglin column was eluted with buffer containing 2 mM EDTA. 5 mM CaCl₂ was added to restore activity and 85% of the furin activity was recovered. (Unit definition: Release of 1 pmol of AMC/min in a reaction containing […] Boc-Arg-Val-Arg-Arg-MCA, 1 mM CaCl₂ and 20 mM NaMES (pH 7.0) at 37° C.

[7] = target: T1, secreted, soluble Kex2; assay: equilibrium enzyme inhibition, fluorogenic substrate
[8] = target: T2, secreted, soluble furin; assay: as above

B1: R4R1-eglin (designed binder)
chain: SMGSELKSFPEVVGKTVDQAREYFTLHYPQYDVYFLPEGSRVTRDLRYNRVRVFYNPGTNVVNHVPHVG
notes: N-terminal Met removed; also called Tyr49-R4R1-; D33Y49
half-life (t1/2) of the complex [1]: ~1 h
half-life (t1/2) of the complex [2]: ~1 h
Ki [3]: 0.91 nM
Ki ratio (to R4R1- template) [3]: 1
Ki [4]: 2.5 nM
Ki ratio (to R4R1- template) [4]: 1
koff [5]: 0.0003 s⁻¹
furin binding capacity of the resin relative to the M4R1-eglin Resin [6]: 10 fold
Ki [7]: 0.91 nM
Ki [8]: 2.5 nM
